1 substance from PMC11212984 can be followed below.

The assay has as its target ERGU-1::GFP (C. elegans ERGU-1, Y87G2A.13, with GFP fused to its C-terminus) (C. elegans). The assay is described as follows: SDS-PAGE western blot. On the technique in general: A western blot detects proteins with antibodies after separation by electrophoresis.

“And” between values parts separate entries of the source, which are not always exact repeats. Equal values may be shown once.

For “ERGU-1::GFP (C. elegans ERGU-1, Y87G2A.13, with GFP fused to its C-terminus) (natural protein)”, the stoichiometry N is 2 and 4.

The term stoichiometry N denotes the number of molecules, sites or subunits per partner or assembly.
